In one experiment the target is C5a (Homo sapiens) (UniProt P01031). Nature of the experiment: SPR. To be noted: cited from earlier work.
A further experiment deals with R46A_(core) (human). Nature of the experiment: SPR; BIAcore X100, NTA sensor chip with about 20-25 RU of immobilised His-tagged C5a form (ligand), ScpA form flowed as ligate at 30 uL/min, 25 °C, 10 mM Hepes-KOH pH 7.4, 150 mM NaCl, 0.005% Tween 20, 50 uM EDTA; global fit, 1:1 Langmuir model with drifting baseline; triplicate. Background: In SPR one partner is held on a chip, and binding of the other changes the refractive index at the surface.

The target of a further experiment is rhC5a_(R40A) (human). The experiment is described as above.
A further experiment addresses rhC5a_(core) (human). The experiment is described as above.
The next experiment has as its target R40A_(core) (human). The description is as above.
For another experiment, the target named is rhC5a_(R46A) (human). The description is as above.
Another experiment concerns the target rhC5a_(R37A) (human). The experiment is described as above.
For a further experiment, the target named is R37A_(core) (human). The description is as above.
In experiment [1] the target is T1, ScpAΔFn123 (Streptococcus pyogenes) (UniProt P15926).
T1 sequence: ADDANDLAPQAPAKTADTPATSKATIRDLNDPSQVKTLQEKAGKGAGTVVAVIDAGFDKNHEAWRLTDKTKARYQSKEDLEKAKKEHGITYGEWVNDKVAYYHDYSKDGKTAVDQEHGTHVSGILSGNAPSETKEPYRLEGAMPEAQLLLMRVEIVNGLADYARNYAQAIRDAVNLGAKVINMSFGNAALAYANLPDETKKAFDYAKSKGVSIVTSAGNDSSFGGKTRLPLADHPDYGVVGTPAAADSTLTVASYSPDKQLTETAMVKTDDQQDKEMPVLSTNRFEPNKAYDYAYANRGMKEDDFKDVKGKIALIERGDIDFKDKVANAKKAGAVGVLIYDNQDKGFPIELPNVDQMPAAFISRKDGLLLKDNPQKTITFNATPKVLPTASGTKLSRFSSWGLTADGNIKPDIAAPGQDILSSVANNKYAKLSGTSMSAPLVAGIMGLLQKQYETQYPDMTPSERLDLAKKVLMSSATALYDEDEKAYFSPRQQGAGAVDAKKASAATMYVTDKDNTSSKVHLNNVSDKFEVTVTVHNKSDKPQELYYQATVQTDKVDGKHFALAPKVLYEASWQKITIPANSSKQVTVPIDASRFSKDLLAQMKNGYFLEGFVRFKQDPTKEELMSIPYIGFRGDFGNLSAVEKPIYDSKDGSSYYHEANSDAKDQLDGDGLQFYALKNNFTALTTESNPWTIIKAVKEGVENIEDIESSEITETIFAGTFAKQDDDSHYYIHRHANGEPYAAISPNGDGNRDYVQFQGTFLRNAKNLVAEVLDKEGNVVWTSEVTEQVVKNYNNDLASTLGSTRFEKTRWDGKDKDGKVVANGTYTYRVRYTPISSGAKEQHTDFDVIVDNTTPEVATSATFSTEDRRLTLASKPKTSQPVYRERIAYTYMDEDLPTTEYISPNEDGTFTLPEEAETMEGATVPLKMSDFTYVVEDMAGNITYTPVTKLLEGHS

Residue numbers refer to the chain shown, from its start. Names and notes keep the numbering of the source.

Chain of C5a (Homo sapiens) (P01031 678-751): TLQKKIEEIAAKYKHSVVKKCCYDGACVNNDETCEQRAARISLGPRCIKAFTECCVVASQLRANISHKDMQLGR

Broadly, the Kd is the constant that tells how readily two partners part at equilibrium. ScpA (from UniProt P58099): the Kd with C5a (Homo sapiens) was 35 nM.

B1: ScpA_(S512A) (enzyme)
chain: ANTVTEDTPVTEQAVETPQPTAVSEEVPSSKETKTPQTPDDAEETIADDANDLAPQAPAKTADTPATSKATIRDLNDPSQVKTLQEKAGKGAGTVVAVIDAGFDKNHEAWRLTDKTKARYQSKEDLEKAKKEHGITYGEWVNDKVAYYHDYSKDGKTAVDQEHGTHVSGILSGNAPSETKEPYRLEGAMPEAQLLLMRVEIVNGLADYARNYAQAIRDAVNLGAKVINMSFGNAALAYANLPDETKKAFDYAKSKGVSIVTSAGNDSSFGGKTRLPLADHPDYGVVGTPAAADSTLTVASYSPDKQLTETAMVKTDDQQDKEMPVLSTNRFEPNKAYDYAYANRGMKEDDFKDVKGKIALIERGDIDFKDKVANAKKAGAVGVLIYDNQDKGFPIELPNVDQMPAAFISRKDGLLLKDNPQKTITFNATPKVLPTASGTKLSRFSSWGLTADGNIKPDIAAPGQDILSSVANNKYAKLSGTAMSAPLVAGIMGLLQKQYETQYPDMTPSERLDLAKKVLMSSATALYDEDEKAYFSPRQQGAGAVDAKKASAATMYVTDKDNTSSKVHLNNVSDKFEVTVTVHNKSDKPQELYYQATVQTDKVDGKHFALAPKVLYEASWQKITIPANSSKQVTVPIDASRFSKDLLAQMKNGYFLEGFVRFKQDPTKEELMSIPYIGFRGDFGNLSAVEKPIYDSKDGSSYYHEANSDAKDQLDGDGLQFYALKNNFTALTTESNPWTIIKAVKEGVENIEDIESSEITETIFAGTFAKQDDDSHYYIHRHANGEPYAAISPNGDGNRDYVQFQGTFLRNAKNLVAEVLDKEGNVVWTSEVTEQVVKNYNNDLASTLGSTRFEKTRWDGKDKDGKVVANGTYTYRVRYTPISSGAKEQHTDFDVIVDNTTPEVATSATFSTEDRRLTLASKPKTSQPVYRERIAYTYMDEDLPTTEYISPNEDGTFTLPEEAETMEGATVPLKMSDFTYVVEDMAGNITYTPVTKLLEGHS
As a reminder, the koff is the first-order rate constant of dissociation. As usually defined, the kon is a measure of how fast the partners come together. Low values mean slower complex formation, high ones faster complex formation. B1: the Kd in the experiment with R46A_(core) (human) was 691 nM; with rhC5a_(R40A) (human) it was 290 nM; with rhC5a_(core) (human), 170 nM; with R40A_(core) (human), 1340 nM; with rhC5a_(R46A) (human) it was 220 nM; with rhC5a_(R37A) (human), 217 nM. The molecule further yielded a Kd with R37A_(core) (human) of 453 nM. Further, the koff is 0.0152 s⁻¹ with R46A_(core) (human); 0.0274 s⁻¹ with rhC5a_(R40A) (human); 0.0075 s⁻¹ with rhC5a_(core) (human); 0.0258 s⁻¹ with R40A_(core) (human); 0.0226 s⁻¹ with rhC5a_(R46A) (human); 0.0176 s⁻¹ with rhC5a_(R37A) (human). Besides, the koff in the experiment with R37A_(core) (human) was 0.0151 s⁻¹. In addition, the kon with R46A_(core) (human) was found to be 22000 M⁻¹ s⁻¹; in the experiment with rhC5a_(R40A) (human) it was 94400 M⁻¹ s⁻¹; in the experiment with rhC5a_(core) (human) it was 45000 M⁻¹ s⁻¹; with R40A_(core) (human), 19300 M⁻¹ s⁻¹; with rhC5a_(R46A) (human), 103000 M⁻¹ s⁻¹; with rhC5a_(R37A) (human), 81200 M⁻¹ s⁻¹. The molecule further displayed a kon with R37A_(core) (human) of 33300 M⁻¹ s⁻¹.

B2: ScpA_(S512A,D889A) (enzyme)
chain: B1 chain with D859A
With B2, the dissociation constant Kd came out at 965 nM with R46A_(core) (human); 94.9 nM in the experiment with rhC5a_(R40A) (human); 90 nM with rhC5a_(core) (human); 734 nM with R40A_(core) (human); 86.6 nM in the experiment with rhC5a_(R46A) (human); 68.3 nM in the experiment with rhC5a_(R37A) (human). This molecule also displayed a Kd with R37A_(core) (human) of 384 nM. Moreover, the koff in the experiment with R46A_(core) (human) was determined as 0.0121 s⁻¹; with rhC5a_(R40A) (human), 0.0259 s⁻¹; in the experiment with rhC5a_(core) (human) it was 0.004 s⁻¹; with R40A_(core) (human), 0.0182 s⁻¹; with rhC5a_(R46A) (human), 0.0129 s⁻¹; in the experiment with rhC5a_(R37A) (human), 0.00934 s⁻¹. The molecule further returned an off-rate (koff) with R37A_(core) (human) of 0.0115 s⁻¹. The kon amounted to 12500 M⁻¹ s⁻¹ with R46A_(core) (human); 273000 M⁻¹ s⁻¹ with rhC5a_(R40A) (human); 44400 M⁻¹ s⁻¹ with rhC5a_(core) (human); 24800 M⁻¹ s⁻¹ with R40A_(core) (human); 148000 M⁻¹ s⁻¹ in the experiment with rhC5a_(R46A) (human); 137000 M⁻¹ s⁻¹ with rhC5a_(R37A) (human). Besides, the kon with R37A_(core) (human) turned out to be 30100 M⁻¹ s⁻¹.

B3: ScpA_(S512A,E864A) (enzyme)
chain: B1 chain with E834A
As to B3, the dissociation constant (Kd) worked out at 624 nM in the experiment with R46A_(core) (human); 346 nM in the experiment with rhC5a_(R40A) (human); 88.7 nM in the experiment with rhC5a_(core) (human); 751 nM with R40A_(core) (human); 62.1 nM in the experiment with rhC5a_(R46A) (human); 67.1 nM with rhC5a_(R37A) (human). In the experiment with R37A_(core) (human), this molecule returned a Kd of 532 nM. The koff with R46A_(core) (human) was found to be 0.0132 s⁻¹; with rhC5a_(R40A) (human) it was 0.0271 s⁻¹; in the experiment with rhC5a_(core) (human), 0.00438 s⁻¹; with R40A_(core) (human), 0.0195 s⁻¹; with rhC5a_(R46A) (human), 0.0213 s⁻¹; with rhC5a_(R37A) (human), 0.0101 s⁻¹. The molecule further had a koff with R37A_(core) (human) of 0.0121 s⁻¹. Besides, the kon in the experiment with R46A_(core) (human) came out at 21200 M⁻¹ s⁻¹; with rhC5a_(R40A) (human), 78500 M⁻¹ s⁻¹; in the experiment with rhC5a_(core) (human) it was 49300 M⁻¹ s⁻¹; with R40A_(core) (human) it was 26100 M⁻¹ s⁻¹; with rhC5a_(R46A) (human), 344000 M⁻¹ s⁻¹; with rhC5a_(R37A) (human), 150000 M⁻¹ s⁻¹. Moreover, the kon with R37A_(core) (human) worked out at 22800 M⁻¹ s⁻¹.

B4: Fn123 (domain or fragment)
chain: T1 sequence
For B4, in experiment [1], the C5a-ase activity of ScpAΔFn123 complemented with Fn123, end-point assay, relative to the wild-type enzyme (data not shown) is 0.1%.
